Reference: article PMC8568338 (Cell reports, 2021)
Read-outs that look alike come from different tables or passages of the source.

How the values were obtained:
[1] = molecular target: T1, VP40-WT (Δ43, HIS-tagged), purified RNA-free monomer/dimer (UniProt Q05128 44-326); experiment: 30 mM NaCl
[2] = molecular target: T1, VP40-WT (Δ43, HIS-tagged), purified …
[3] = molecular target: T1, VP40-WT (Δ43, HIS-tagged), purified …; experiment: blue native gel
[4] = molecular target: T1, VP40-WT (Δ43, HIS-tagged), purified …; experiment: native MS

UACAUUCCCAGCCUUUGUAGUGUUUUCGCCAAGCA (ssRNA) [HSP RNA]: binds [1].

TACATTCCCAGCCTTTGTAGTGTTTTCGCCAAGCA (ssDNA) [HSP DNA]: binds [2].

CAGCCTTTGTAGTGTTTT (ssDNA) [HSP18 DNA]: binds [2].

AAAAAAAAAAAAAAAAAAAAAAAAAAAAAAAAAAAA (ssDNA) [A36 DNA]: no binding [3].

AGGGG (ssDNA) [AGGGG DNA]: binds [2].

TAAAATAATTTTATTGAAT (ssDNA) [S2R DNA]: binds [4].
